{"source": "paper PMC7555924", "origin": "cited, not measured here", "key": {"Cys47": {"biological_target": "Cys47 (UniProt position 48, SLKASCLYGQL)", "conditions": "not stated (the Cys47 thiolate is described as ion-paired with Lys54)"}, "Cys95": {"biological_target": "Cys95 (UniProt position 121, SKYPNCAYKTT)", "conditions": "fully reduced (all disulfides cleaved), molten globule-like conformation"}, "Cys94": {"biological_target": "Cys94 (UniProt position 94, GSRNLCNIPCS)", "conditions": "fully reduced (all disulfides cleaved), molten globule-like conformation"}, "Cys1": {"biological_target": "Cys1 (UniProt position 1, -----CGVPAI)", "conditions": "fully reduced (all disulfides cleaved), molten globule-like conformation"}, "Cys75": {"biological_target": "Cys75 (UniProt position 99, FGDELCKVASL)", "conditions": "fully reduced (all disulfides cleaved), molten globule-like conformation"}}, "data": [{"substance": "Glutathione S-transferase P1-1 (GSTP1-1) (Homo sapiens)", "values": [{"measurement": "pKa", "setting": "Cys47", "value": 3.5}]}, {"substance": "Ribonuclease A (reduced, rRNase) (Bos taurus)", "values": [{"measurement": "pKa", "setting": "Cys95", "value": 7.9}]}, {"substance": "Lysozyme C (reduced, rLyz) (Gallus gallus)", "values": [{"measurement": "pKa", "setting": "Cys94", "value": 6.6}]}, {"substance": "Chymotrypsinogen A (reduced, rChTg) (Bos taurus)", "values": [{"measurement": "pKa", "setting": "Cys1", "value": 8.1}]}, {"substance": "Serum albumin (reduced, rBSA) (Bos taurus)", "values": [{"measurement": "pKa", "setting": "Cys75", "value": 6.6}]}]}
